Measured values from patent publication US20240336672A1.

How the values were obtained:
Test in all cases: flow cytometry (Mock 2.5)
ι (SARS-CoV-2) = molecular target: ι (SARS-CoV-2)
γ (SARS-CoV-2) = molecular target: γ (SARS-CoV-2)
[1] = molecular target: SARS-CoV-2 δ variant spike protein, cell-expressed (SARS-CoV-2)
β (SARS-CoV-2) = molecular target: β (SARS-CoV-2)
α (SARS-CoV-2) = molecular target: α (SARS-CoV-2)
ε (SARS-CoV-2) = molecular target: ε (SARS-CoV-2)
κ (SARS-CoV-2) = molecular target: κ (SARS-CoV-2)

Adintrevimab (antibody), sequence (VH): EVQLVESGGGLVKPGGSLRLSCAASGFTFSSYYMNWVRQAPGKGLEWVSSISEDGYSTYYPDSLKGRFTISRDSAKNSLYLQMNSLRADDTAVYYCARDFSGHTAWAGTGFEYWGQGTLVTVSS
Adintrevimab (antibody), sequence (VL): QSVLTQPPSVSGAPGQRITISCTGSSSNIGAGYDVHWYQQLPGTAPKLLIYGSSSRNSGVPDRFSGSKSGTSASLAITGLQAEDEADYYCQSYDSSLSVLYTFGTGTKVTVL

Substance	log10 ΔgMFI (ι (SARS-CoV-2))	log10 ΔgMFI (γ (SARS-CoV-2))	log10 ΔgMFI [1]	log10 ΔgMFI (β (SARS-CoV-2))	log10 ΔgMFI (α (SARS-CoV-2))	log10 ΔgMFI (ε (SARS-CoV-2))	log10 ΔgMFI (κ (SARS-CoV-2))
Adintrevimab (antibody)	4.9	4.5	4.5	3.9	4.3	4.5	4.8
CAS (antibody)	4.9	–	4.6	3.1	4.4	4.6	4.9
Cilgavimab (antibody)	4.9	4.7	–	–	4.4	–	4.7
BAM (antibody)	2.5	2.5	2.5	2.5	4.4	–	3.5
ETE (antibody)	4.8	2.5	4.5	2.5	4.2	4.5	4.7
TIX (antibody)	4.9	4.6	4.7	3.9	4.5	4.7	4.9
